# Assay results: paper PMC6676893 (Biochemistry, 2019)
# Changes are numbered by the printed parent chain.
# B1: Escherichia coli SufS R92A (enzyme, E. coli)
# chain: MIFSVDKVRADFPVLSREVNGLPLAYLDSAASAQKPSQVIDAEAEFYRHGYAAVHRGIHTLSAQATEKMENVRKRASLFINARSAEELVFVAGTTEGINLVANSWGNSNVRAGDNIIISQMEHHANIVPWQMLCARVGAELRVIPLNPDGTLQLETLPTLFDEKTRLLAITHVSNVLGTENPLAEMITLAHQHGAKVLVDGAQAVMHHPVDVQALDCDFYVFSGHKLYGPTGIGILYVKEALLQEMPPWEGGGSMIATVSLSEGTTWTKAPWRFEAGTPNTGGIIGLGAALEYVSALGLNNIAEYEQNLMHYALSQLESVPDLTLYGPQNRLGVIAFNLGKHHAYDVGSFLDNYGIAVRTGHHCAMPLMAYYNVPAMCRASLAMYNTHEEVDRLVTGLQRIHRLLG
# modifications: persulfide on C364 (as isolated; crystallographic occupancy 0.84); PLP, internal aldimine with K226
# B2: Escherichia coli SufS H55A (enzyme, E. coli)
# chain: B1 chain with H55A, A92R
# modifications: persulfide on C364 (as isolated; crystallographic occupancy 0.66); PLP, internal aldimine with K226
# B3: Escherichia coli SufS E250A (enzyme, E. coli)
# chain: B1 chain with A92R, E250A
# modifications: persulfide on C364 (as isolated; crystallographic occupancy 0.63); PLP, internal aldimine with K226
# B4: Escherichia coli SufS E96A (enzyme, E. coli)
# chain: B1 chain with A92R, E96A
# modifications: persulfide on C364 (as isolated; crystallographic occupancy 0.80); PLP, internal aldimine with K226
# Assays:
# [1] = molecular target: the molecule itself; experiment: SEC
# [2] = molecular target: the molecule itself; experiment: crystal structure
Protein,stoichiometry N [1],binding result [2]
B1,2,–
B2,–,binds
B3,2,–
B4,2,–
